Test results: publication PMC6262109
Like-named read-outs stand apart in the source and are kept apart here.

Legend:
Assay in all cases: EMSA
[1] = target: T1, FLAG-Dmp1 (Dmp1alpha) (UniProt Q8CE22 1-761)
T1 sequence: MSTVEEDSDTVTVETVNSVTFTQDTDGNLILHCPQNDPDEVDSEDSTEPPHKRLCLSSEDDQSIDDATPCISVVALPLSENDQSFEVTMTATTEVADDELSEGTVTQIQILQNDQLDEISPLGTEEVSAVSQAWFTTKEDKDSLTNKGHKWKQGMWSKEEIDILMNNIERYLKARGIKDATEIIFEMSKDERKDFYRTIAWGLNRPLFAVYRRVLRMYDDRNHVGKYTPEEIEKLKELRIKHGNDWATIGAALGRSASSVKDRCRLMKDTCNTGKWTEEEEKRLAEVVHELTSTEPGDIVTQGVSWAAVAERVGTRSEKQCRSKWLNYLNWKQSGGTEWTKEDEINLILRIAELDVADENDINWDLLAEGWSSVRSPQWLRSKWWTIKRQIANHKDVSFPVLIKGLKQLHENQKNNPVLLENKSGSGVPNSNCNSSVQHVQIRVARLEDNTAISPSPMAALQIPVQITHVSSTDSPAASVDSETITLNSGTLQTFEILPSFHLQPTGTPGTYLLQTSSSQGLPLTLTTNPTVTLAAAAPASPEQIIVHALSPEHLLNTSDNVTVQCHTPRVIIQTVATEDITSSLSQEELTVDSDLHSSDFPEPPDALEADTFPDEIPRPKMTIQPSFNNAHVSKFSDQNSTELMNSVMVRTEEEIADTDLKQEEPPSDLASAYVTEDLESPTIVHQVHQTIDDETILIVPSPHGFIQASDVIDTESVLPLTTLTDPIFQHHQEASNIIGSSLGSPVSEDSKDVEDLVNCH

[2] = target: T2, FLAG-Dmp1 (Dmp1alpha);p53 (mouse?;, UniProt Q8CE22;P04637 1-761;1-393, |)
[3] = target: T2, FLAG-Dmp1 (Dmp1alpha);p53; remark: listed apart in the source
[4] = target: p53 (UniProt P04637 1-393)

B1: mouse Arf promoter Dmp1 site (dsDNA)
DNA 1: TACCTCGTGGGGCGGATGCACAGAAGCAC
DNA 2: GTGCTTCTGTGCATCCGCCCCACGAGGTA
- binding result [1]: binds

B2: p53-g general p53 consensus (dsDNA)
DNA 1: AGGCATGCCTAGGCATGCCT
DNA 2: AGGCATGCCTAGGCATGCCT
- binding signal [2]: 6 fold vs p53 alone

B3: mouse p21Cip1 p53 consensus #2 (dsDNA)
DNA 1: AGACTGGGCATGTCTGGGCA
DNA 2: TGCCCAGACATGCCCAGTCT
- binding signal [3]: 3 fold vs p53+BSA
- binding result [4]: binds
